The target of the experiment is SARS-CoV-2 S protein (residues 1-1212 with stabilizing mutations R684G, R685S, R678G, K998P and V999 (SARS-CoV-2) (UniProt P0DTC2)). Briefly: ELISA; ELISA-like solid-phase binding: ligands coated on 96-well plates in TBS, 6 h RT (S protein 20 µg/ml, vitronectin 5 µg/ml, fibrinogen 20 µg/ml, fibronectin 10 µg/ml); velcro-tagged integrins at 10 µg/ml in 20 mM Hepes, 150 mM NaCl, 1 mM MnCl2, pH 7.2, 2 h RT; detected by biotinylated anti-velcro antibody, streptavidin-HRP, ABTS, 405 nm.

For “velcro-tagged integrin α5β1 (from UniProt P08648 42-995; P05556 21-728) (receptor)”, the fold weaker than the binding to the physiological ligand (fibronectin) is < 10 fold.

The values above are taken from publication PMC9898865.
